Assay results published in PMC8543862, “Characterization of a highly xylose tolerant β-xylosidase isolated from high temperature horse manure compost” (BMC Biotechnology, 2021).

Tested on: O=[N+]([O-])c1ccc(O[C@@H]2OC[C@@H](O)[C@H](O)[C@H]2O)cc1
Experiment: purified protein
Format: biochemical, uncultured bacterium
Conditions: 50 mM sodium phosphate pH 6, 37 °C, 20 min, 1-20 mM substrate, kcat unit not given

XylP81 (uncultured bacterium)
Km: 5.3 mM
